These results are taken from paper PMC2873508.

Experiment [1] deals with Chimaeric GL8 (ABSN) Env with the V4-V5 region of variant B14 (feline immunodeficiency virus (FIV), strain GL8 | feline immunodeficiency virus (FIV), strain GL8, in vivo variant).
In experiment [2] the target is FIV GL8 Env (molecular clone 414) (feline immunodeficiency virus (FIV), strain GL8).
Experiment [3] has as its target CD134 on MYA-1 cells (not stated (endogenous in MYA-1 cells)).
Experiment [4] has the same target. This is another data set of the same source.
Experiment [5] addresses feline CD134 on MCC cells (feline).

soluble Fc-CD134 (Fc fusion): the figures for the percent infection of MYA-1 cells by HIV(FIV) pseudotype (Env with cell CD134) with sFc-CD134, relative to no antagonist (Fig. 7B) in experiment [1] and in experiment [2] were 65.1 % infection and 18.4 % infection, respectively.

In experiment [3], “FIV Env of A613 variant B14 (natural protein)” showed an inhibition of HIV(FIV) pseudotype infection of MYA-1 cells by anti-CD134 antibody 7D6 (series 0.4 to 50 μg/ml; reduced by 90% at 0.4 μg/ml) (% reduction of infection) greater than 99. The substance also gave a percent infection of MYA-1 cells by HIV(FIV) pseudotype with anti-CD134 antibody, relative to no antagonist (Fig. 7A) in experiment [4] of 19.5 % infection. Moreover, in experiment [5], the ratio of luciferase counts (CPM) of HIV(FIV) pseudotype infection on MCC cells with feline CD134 divided by counts on MCC cells with the feCRD1 chimera (feline CRD1 x human CD134); dependency on CRD2 amounted to 10.

For the substance FIV B2542 Env (natural protein), in experiment [5], the ratio of luciferase counts (CPM) of HIV(FIV) pseudotype infection on MCC cells with feline CD134 divided by counts on MCC cells with the feCRD1 chimera (feline CRD1 x human CD134); dependency on CRD2 came to 5.

Turning to “FIV Env of A613 variant B23 (natural protein)”, in experiment [5], the ratio of luciferase counts (CPM) of HIV(FIV) pseudotype infection on MCC cells with feline CD134 divided by counts on MCC cells with the feCRD1 chimera (feline CRD1 x human CD134); dependency on CRD2 amounted to 223.
